This note sets out measurements from patent US20230235072A1 (DENALI THERAPEUTICS, published 2023).

Substitutions are numbered along the chain they refer to.

For assay [1], the target named is T1, human transferrin receptor (TfR) ectodomain (ECD) (human, UniProt P02786 121-760, biotinylated where captured on streptavidin).
T1 construct: also called human TfR; huTfR
In words: phage ELISA, phage dilution series on plate-coated human TfR without and with holo-Tf; OD650. In general terms: An ELISA detects its analyte on a solid surface through an enzyme-linked reagent.
Target sequence in this assay (P02786 121-760): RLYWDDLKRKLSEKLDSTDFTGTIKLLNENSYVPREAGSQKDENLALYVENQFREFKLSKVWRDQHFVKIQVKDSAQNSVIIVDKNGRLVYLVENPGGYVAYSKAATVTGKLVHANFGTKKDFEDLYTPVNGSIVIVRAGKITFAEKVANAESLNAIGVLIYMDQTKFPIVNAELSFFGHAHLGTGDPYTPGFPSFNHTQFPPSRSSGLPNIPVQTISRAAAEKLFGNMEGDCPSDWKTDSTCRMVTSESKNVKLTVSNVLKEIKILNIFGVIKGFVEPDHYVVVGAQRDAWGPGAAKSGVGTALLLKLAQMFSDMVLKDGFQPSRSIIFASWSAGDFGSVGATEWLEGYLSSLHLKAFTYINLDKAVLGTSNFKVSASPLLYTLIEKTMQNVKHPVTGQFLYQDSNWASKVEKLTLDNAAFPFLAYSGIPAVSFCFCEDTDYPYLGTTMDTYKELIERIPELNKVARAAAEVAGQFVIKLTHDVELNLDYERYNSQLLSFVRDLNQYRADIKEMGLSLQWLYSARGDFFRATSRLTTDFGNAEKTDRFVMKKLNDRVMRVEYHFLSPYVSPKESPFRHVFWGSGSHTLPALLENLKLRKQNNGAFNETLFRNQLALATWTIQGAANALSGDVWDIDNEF

The target of assay [2] is T1, human transferrin receptor (TfR) …. In words: phage ELISA: phage at about its EC50 on plate-coated human TfR with soluble holo-Tf added at 0.007-5 uM; OD650.
Assay [3] concerns the target T2, cynomolgus transferrin receptor (TfR) ectodomain (ECD) (cynomolgus, UniProt Q5RDH6 121-760 (Pongo abelii entry), biotinylated where captured on streptavidin).
T2 construct: also called cyno TfR; cynoTfR
T2 chain: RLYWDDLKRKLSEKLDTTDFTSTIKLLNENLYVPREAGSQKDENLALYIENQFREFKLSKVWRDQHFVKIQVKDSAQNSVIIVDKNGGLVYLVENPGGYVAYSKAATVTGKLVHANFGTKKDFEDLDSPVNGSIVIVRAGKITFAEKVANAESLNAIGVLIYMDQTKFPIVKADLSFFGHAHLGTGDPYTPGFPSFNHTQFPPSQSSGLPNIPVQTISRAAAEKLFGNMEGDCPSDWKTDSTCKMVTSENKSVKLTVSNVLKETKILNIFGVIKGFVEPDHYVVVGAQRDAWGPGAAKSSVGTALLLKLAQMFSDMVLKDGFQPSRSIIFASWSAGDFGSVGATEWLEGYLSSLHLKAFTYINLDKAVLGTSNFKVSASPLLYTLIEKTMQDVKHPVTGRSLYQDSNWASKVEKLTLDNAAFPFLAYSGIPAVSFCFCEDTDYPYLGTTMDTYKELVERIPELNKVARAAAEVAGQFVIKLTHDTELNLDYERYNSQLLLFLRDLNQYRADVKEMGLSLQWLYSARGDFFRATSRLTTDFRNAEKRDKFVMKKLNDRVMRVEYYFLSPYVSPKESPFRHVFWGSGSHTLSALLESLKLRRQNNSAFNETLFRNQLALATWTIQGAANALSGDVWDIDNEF
The assay can be described thus: phage ELISA: Fc variant on phage, titrated by OD268 of the phage solution on plate-coated cyno TfR; OD650.

The target in assay [4] is T2, cynomolgus transferrin receptor (TfR) …. The assay is described as above.
The target of assay [5] is T1, human transferrin receptor (TfR) …. In words: competition phage ELISA: phage-displayed clone at about its EC50 on plate-coated human TfR, soluble human TfR varied as competitor; OD650.
Assay [6] shares this target. The assay can be described thus: phage ELISA: Fc variant on phage, titrated by OD268 of the phage solution on plate-coated human TfR; OD650.
Assay [7] concerns the target T2, cynomolgus transferrin receptor (TfR) …. In words: phage ELISA: Fc variant on phage, titrated by OD268 of the phage solution on plate-coated cyno TfR; OD650.
Assay [8] addresses T1, human transferrin receptor (TfR) …. The assay can be described thus: SPR (Biacore), same protocol as previously described; form of human TfR not stated.
Target sequence in this assay (P02786 121-760): as the sequence (P02786 121-760) above
The target in another assay is T3, CH3C.18 Fc-Fab fusion (Homo sapiens (Human), UniProt P0DOX5 230-449 = IgG part).
T3 construct: bivalent for TfR; also called CH3C.18.1.18
T3 Fc: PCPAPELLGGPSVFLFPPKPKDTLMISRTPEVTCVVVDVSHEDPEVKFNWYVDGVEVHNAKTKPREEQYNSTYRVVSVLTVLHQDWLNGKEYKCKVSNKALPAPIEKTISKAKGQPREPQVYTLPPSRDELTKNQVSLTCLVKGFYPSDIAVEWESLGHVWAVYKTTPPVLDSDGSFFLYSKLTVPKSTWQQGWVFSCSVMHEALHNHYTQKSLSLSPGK
The assay can be described thus: phage ELISA: phage-displayed human TfR apical domain, dilution series on plate-coated CH3C.18; OD650. On the procedure:
(§1) The plates were subsequently washed and anti-M13-HRP was added, and after additional washing the plates were developed with TMB substrate and quenched with 2N […].

Assay [9] deals with T4, CH3C.35 Fc-Fab fusion (bivalent) (Homo sapiens (Human), UniProt P0DOX5 230-449 = IgG part).
T4 construct: bivalent for TfR; also called CH3C.35.bi; CHC3.35
T4 Fc: T3 Fc with L157Y, H159T, V160E, A162S, V163S, P186T, T189E, W194F
In words: phage ELISA: phage-displayed human TfR apical domain, dilution series on plate-coated CH3C.35; OD650. On the procedure:
as §1

In assay [10] the target is T4, CH3C.35 Fc-Fab fusion (bivalent). The assay can be described thus: phage ELISA: phage-displayed TfR apical domain, dilution series on plate-coated CH3C.35; OD650. On the procedure:
as §1

In assay [11] the target is T1, human transferrin receptor (TfR) …. The assay can be described thus: ELISA, Fc-Fab fusion titrated on plate-coated human TfR; OD650. The source says:
(§2) The CH2C variants were expressed as Fc fusions to Fab fragments by cloning into an expression vector containing an anti-BACE1 benchmark variable region sequence.

The target in assay [12] is T2, cynomolgus transferrin receptor (TfR) …. In words: ELISA, Fc-Fab fusion titrated on plate-coated cyno TfR; OD650.
From the text: as §2

Assay [13] has as its target T1, human transferrin receptor (TfR) …. The assay can be described thus: phage ELISA, phage dilution series on plate-coated human TfR without and with holo-Tf; OD650.
From the text: as §2
Target sequence in this assay (P02786 121-760): as the sequence (P02786 121-760) above
This is another data set of the same source.

In another assay the target is streptavidin (Natural streptavidin is a homotetramer; one chain is given.). The assay can be described thus: phage ELISA, phage dilution series on plate-coated streptavidin; OD650.

B1: Clone CH3B.11 (designed binder)
chain: PCPAPELLGGPSVFLFPPKPKDTLMISRTPEVTCVVVDVSHEDPEVKFNWYVDGVEVHNAKTKPREEQYNSTYRVVSVLTVLHQDWLNGKEYKCKVSNKALPAPIEKTISKAKGQPRFGLVTTLPPSRDELTKNQVSLTCLVKGFYPSDIAVEWESNGQPENNYKTTPPVLDSDGSFFLYSKLTVDKSRWQQGNVFSCSVMHEALHNHYGFHDLSLSPGK
B1: the binding result in assay [1] is given as “binds”.

B2: Clone CH3B.12 (designed binder)
chain: B1 chain with G119D, L120Y, H212S
For B2, in assay [1], the binding result was “binds”.

B3: Clone CH2A2.4 (designed binder)
chain: PCPAPELLGGPSVFLFPPKPKDTLMISRTPEVTCVVVDVSHEDPEVSFEWYVDGVPVRWEWQWPREEQYNSTYRVVSVLTVLHQDWLNGKEYKCKVSNKALPAPIEKTISKAKGQPREPQVYTLPPSRDELTKNQVSLTCLVKGFYPSDIAVEWESNGQPENNYKTTPPVLDSDGSFFLYSKLTVDKSRWQQGNVFSCSVMHEALHNHYTQKSLSLSPGK
Regarding B3, the binding result in [2] and in [3] was “binds” each time.

B4: Clone CH2A2.1 (designed binder)
chain: B3 chain with S47E, E49I, P56D, W59Y, W63L
For the molecule B4, the binding result in assay [4] and in assay [5] was “binds” in each case.

B5: Clone CH2A2.5 (designed binder)
chain: B3 chain with S47A, E49T, W63N
Take B5: the binding result in [6] and in assay [7] was “binds” in each case.

B6: Clone CH3C.35.N390.1 (designed binder)
chain: T3 Fc with L157Y, H159T, V160E, A162S, V163N, P186S, T189E, W194F
What is called Kd is the concentration at which binding is half-saturated. B6: the affinity in assay [8], expressed as Kd, was 2000 nM.

B7: Clone CH3C.35.23.3.1 (designed binder)
chain: T3 Fc with L157Y, H159T, V160E, A162V, V163N, P186S, S188E, T189E, W194F
B7 had a Kd in [8] of 1900 nM.

B8: Clone CH3C.35.23.2.1 (designed binder)
chain: T3 Fc with L157Y, H159T, V160E, V163N, P186S, T189E, W194F
On to B8, for which the Kd in assay [8] was 690 nM.

B9: Clone CH3C.35.S413 (designed binder)
chain: T3 Fc with L157Y, H159T, V160E, A162S, V163S, P186S, T189E, W194F
In turn, B9 gave a Kd in assay [8] of 1700 nM.

B10: Clone CH3C.35.23.1.1 (designed binder)
chain: T3 Fc with L157F, H159T, V160E, A162S, V163N, P186S, S188E, T189E, W194F
The molecule B10 displayed a Kd in assay [8] of 750 nM.

B11: Clone CH3C.35.20.1.1 (designed binder)
chain: T3 Fc with L157F, H159T, V160E, A162S, V163S, P186S, S188E, T189E, W194F
For the molecule B11, the Kd in assay [8] stood at 620 nM. The Kd values of the last two molecules are within 1.5-fold of each other.

B12: Clone CH3C.35.23.6.1 (designed binder)
chain: T3 Fc with L157F, H159T, V160E, A162V, V163N, P186S, S188E, T189E, W194F
For the molecule B12, the equilibrium dissociation constant (Kd) in assay [8] was 2100 nM.

B13: loop-truncated human TfR apical domain displayed on phage (receptor)
chain: SSGLPNIPVQTISRAAAEKLFGNMEGDCPSDWKTDSTCRMVTSESKNVKLTVSNDSAQNSVIIVDKNGRLVYLVENPGGYVAYSKAATVTGKLVHANFGTKKDFEDLYTPVNGSIVIVRAGKITFAEKVANAESLNAIGVLIYMDQTKFPIVNAELSGP
notes: fused to phage coat, Myc-tagged; also called human TfR apical domain (phage)
Take B13: the binding result (with CH3C.18 Fc-Fab fusion; in assay [9]) was “binds” each time.

B14: loop-truncated cynomolgus TfR apical domain displayed on phage (receptor)
chain: B13 chain with R39K, S45N, N47S, R69G, Y108D, T109S, N153K, E155D
notes: fused to phage coat, Myc-tagged; also called cyno apical domain (phage)
Regarding B14, in [10], the binding result was “binds”.

B15: Clone CH2C.7 (designed binder)
chain: PCPAPELLGGPSVFLFPPKPKDTLMISRTPEVTCVVVDPPVPPWEVKFNWYVDGVEVHNAKTKPREEEYYSNYRVVSVLTVLHQDWLNGKEYKCKVSNKALPAPIEKTISKAKGQPREPQVYTLPPSRDELTKNQVSLTCLVKGFYPSDIAVEWESNGQPENNYKTTPPVLDSDGSFFLYSKLTVDKSRWQQGNVFSCSVMHEALHNHYTQKSLSLSPGK
notes: found on phage
Turning to B15, the binding result in [11] and in [12] was “binds” throughout.

B16: Clone CH2C.17 (designed binder)
chain: B15 chain with P39M, P40L, V41W, P43V, W44P, E68V, Y70H, S71R, N72P
notes: modified Fc; found by yeast display, tested on phage with holo-Tf
On to B16, for which the binding result is listed as “binds” in assay [13] and “no binding (tested: dilution 1 (least diluted phage))” in the assay with streptavidin.

B17: Clone CH2C.8 (designed binder)
chain: B15 chain with P40A, V41F, S71Q
Take B17: the figures for the binding result in [11] and in assay [12] were “no binding (tested: 1000 nM)” and “binds”, respectively.

B18: Clone CH2C.22 (designed binder)
chain: B15 chain with P39D, P40D, V41L, P42T, P43F, W44Q, E68L, Y70V, S71T, N72P
notes: as for B16
B18: the binding result in assay [13] was “binds”; with streptavidin it was “no binding (tested: dilution 1 (least diluted phage))”.
